Paper PMC6642015 (Cell chemical biology, 2019)
Changes are numbered by the printed parent chain.

T1: human MCM-CblA complex (Homo sapiens, UniProt Q8IVH4)
T1 sequence (Q8IVH4 66-418 limits assumed): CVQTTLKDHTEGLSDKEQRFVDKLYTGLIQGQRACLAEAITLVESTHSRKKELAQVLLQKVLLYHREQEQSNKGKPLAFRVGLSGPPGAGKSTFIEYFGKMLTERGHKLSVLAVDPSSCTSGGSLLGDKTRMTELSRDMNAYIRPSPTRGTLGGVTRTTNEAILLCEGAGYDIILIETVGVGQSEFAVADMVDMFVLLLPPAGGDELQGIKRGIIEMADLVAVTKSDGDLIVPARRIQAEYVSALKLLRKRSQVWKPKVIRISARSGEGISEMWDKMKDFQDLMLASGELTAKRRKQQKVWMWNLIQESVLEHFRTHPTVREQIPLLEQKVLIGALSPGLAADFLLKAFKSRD
T1 sequence (P22033 33-750 partner): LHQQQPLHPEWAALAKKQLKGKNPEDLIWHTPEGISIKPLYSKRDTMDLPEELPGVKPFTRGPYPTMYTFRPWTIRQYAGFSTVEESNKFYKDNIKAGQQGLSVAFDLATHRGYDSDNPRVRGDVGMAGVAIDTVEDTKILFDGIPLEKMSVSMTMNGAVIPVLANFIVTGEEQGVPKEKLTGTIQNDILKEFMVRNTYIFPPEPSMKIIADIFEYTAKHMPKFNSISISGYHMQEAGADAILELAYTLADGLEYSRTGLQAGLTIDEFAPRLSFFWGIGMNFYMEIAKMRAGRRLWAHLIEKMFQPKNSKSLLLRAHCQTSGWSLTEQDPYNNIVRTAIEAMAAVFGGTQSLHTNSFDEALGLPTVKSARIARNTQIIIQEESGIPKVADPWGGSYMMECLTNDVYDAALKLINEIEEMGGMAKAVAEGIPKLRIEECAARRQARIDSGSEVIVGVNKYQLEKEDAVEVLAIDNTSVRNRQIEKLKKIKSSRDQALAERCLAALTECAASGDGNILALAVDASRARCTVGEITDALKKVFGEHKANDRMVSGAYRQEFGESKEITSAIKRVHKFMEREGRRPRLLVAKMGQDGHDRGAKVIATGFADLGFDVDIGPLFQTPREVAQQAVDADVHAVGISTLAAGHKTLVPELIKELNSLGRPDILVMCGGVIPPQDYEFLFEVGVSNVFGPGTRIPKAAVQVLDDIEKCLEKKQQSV

T2: human CblA, wild type (human, UniProt Q8IVH4 72-418)
T2 sequence: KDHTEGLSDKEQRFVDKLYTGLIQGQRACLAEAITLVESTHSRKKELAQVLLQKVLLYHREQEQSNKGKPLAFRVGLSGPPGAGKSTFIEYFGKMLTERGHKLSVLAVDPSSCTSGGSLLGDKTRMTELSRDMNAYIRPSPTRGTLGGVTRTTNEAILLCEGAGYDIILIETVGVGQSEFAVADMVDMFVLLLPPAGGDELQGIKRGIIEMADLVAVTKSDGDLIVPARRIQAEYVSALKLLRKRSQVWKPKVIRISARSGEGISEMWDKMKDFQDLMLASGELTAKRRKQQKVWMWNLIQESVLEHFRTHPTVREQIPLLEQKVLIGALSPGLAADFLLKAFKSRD

T3: human CblA Q273A (human, UniProt Q8IVH4 72-418, Q273A)
T3 sequence: T2 sequence with Q202A

T4: human CblA G274S (human, UniProt Q8IVH4 72-418, G274S)
T4 sequence: T2 sequence with G203S

T5: human CblA K276A (human, UniProt Q8IVH4 72-418, K276A)
T5 sequence: T2 sequence with K205A

T6: human CblA K276E (human, UniProt Q8IVH4 72-418, K276E)
T6 sequence: T2 sequence with K205E

T7: human CblA G278D (human, UniProt Q8IVH4 72-418, G278D)
T7 sequence: T2 sequence with G207D

B1: human methylmalonyl-CoA mutase (enzyme, UniProt P22033 33-750, looked up)
chain: T1 sequence (P22033 33-750 partner)

How the values were obtained:
human MCM-CblA complex = target: T1, human MCM-CblA complex; assay: gel filtration and negative stain EM; assay type: binding; details: MCM 25 μM, CblA 50 μM, GMPPCP 500 μM
human CblA, wild type [1] = target: T2, human CblA, wild type; assay: cell-based or functional assay
human CblA Q273A = target: T3, human CblA Q273A; assay: cell-based or functional assay
human CblA G274S = target: T4, human CblA G274S; assay: cell-based or functional assay
human CblA K276A = target: T5, human CblA K276A; assay: cell-based or functional assay
human CblA K276E = target: T6, human CblA K276E; assay: cell-based or functional assay
human CblA G278D = target: T7, human CblA G278D; assay: cell-based or functional assay
human CblA, wild type [2] = target: T2, human CblA, wild type; assay: SEC-MALS

Molecule | gel filtration and negative stain EM; block of AdoCbl transfer (human MCM-CblA complex) | GTPase activity of CblA in the presence of MCM (GAP activation) (human CblA, wild type [1]) | GTPase activity of CblA in the presence of MCM (GAP activation) (human CblA Q273A) | GTPase activity of CblA in the presence of MCM (GAP activation) (human CblA G274S) | GTPase activity of CblA in the presence of MCM (GAP activation) (human CblA K276A) | GTPase activity of CblA in the presence of MCM (GAP activation) (human CblA K276E) | GTPase activity of CblA in the presence of MCM (GAP activation) (human CblA G278D) | stoichiometry N (human CblA, wild type [2])
Nc1nc2c(ncn2[C@@H]2O[C@H](COP(=O)(O)OP(=O)(O)CP(=O)(O)O)[C@@H](O)[C@H]2O)c(=O)[nH]1 [GMPPCP] | higher order oligomeric peak seen in the presence of GMPPCP | – | – | – | – | – | – | –
B1 | – | 2.78 min⁻¹ | 0.86 min⁻¹ | 1.04 min⁻¹ | 2.98 min⁻¹ | 0.92 min⁻¹ | 3.07 min⁻¹ | 2 MCM (dimer) per CblA (dimer)
